# Patent publication US20020151484A1 (HYBRIGENICS, published 2002)
# B1: SID polypeptide of SEQ ID No 18, NS4B (53%)/NS5A (46%), HCV strain H77 nt 6197-6310 (other)
# chain: VTQLLRRLHQWISSECTTPCSGSWLRDIWDWICEVL
# notes: Intersection of yeast two-hybrid prey fragments; also called SID NS4B (53%)/NS5A (46%)
# B2: Bait polypeptide of SEQ ID No 98, NS4B (30%)/NS5A (69%), HCV strain H77 nt 6107-6605 (other)
# chain: ASRGNHVSPTHYVPESDAAARVTAILSSLTVTQLLRRLHQWISSECTTPCSGSWLRDIWDWICEVLSDFKTWLKAKLMPQLPGIPFVSCQRGYRGVWRGDGIMHTRCHCGAEITGHVKNGTMRIVGPRTCRNMWSGTFPINAYTTGPCTPLPAPNYKFALWRVSA
# notes: also called Bait NS4B (30%)/NS5A (69%)
# B3: SID polypeptide of SEQ ID No 12, NS5B (100%), HCV strain H77 nt 7979-8109 (other)
# chain: not shown
# notes: Intersection of yeast two-hybrid prey fragments; also called SID NS5B (100%)
# B4: SID polypeptide of SEQ ID No 22, E2 (100%), HCV strain H77 nt 1823-1955 (other)
# chain: GIVPAKSVCGPVYCFTPSPVVVGTTDRSGAPTYSWGANDTDVF
# notes: Intersection of yeast two-hybrid prey fragments; also called SID E2 (100%)
# B5: SID polypeptide of SEQ ID No 20, NS5B (100%), HCV strain H77 nt 9083-9222 (other)
# chain: not shown
# notes: as for B3
# B6: SID polypeptide of SEQ ID No 26, NS4B (70%)/NS5A (28%), HCV strain H77 nt 6176-6291 (other)
# chain: AILSSLTVTQLLRRLHQWISSECTTPCSGSWLRDIWD
# notes: Intersection of yeast two-hybrid prey fragments; also called SID NS4B (70%)/NS5A (28%)
# B7: Bait polypeptide of SEQ ID No 91, NS3 (1%)/NS4A (98%), HCV strain H77 nt 5310-5467 (other)
# chain: TSTWVLVGGVLAALAAYCLSTGCVVIVGRIVLSGKPAIIPDREVLYQEFDE
# notes: also called Bait NS3 (1%)/NS4 A (98%)
# B8: SID polypeptide of SEQ ID No 15, E2 (100%), HCV strain H77 nt 1871-1968 (other)
# chain: PSPVVVGTTDRSGAPTYSWGANDTDVFVLNN
# notes: as for B4
# B9: SID polypeptide of SEQ ID No 3, Core (100%), HCV strain H77 nt 380-616 (other)
# chain: NTNRRPQDVKFPGGGQIVGGVYLLPRRGPRLGVRATRKTSERSQPRGRRQPIPKARRPEGRTWAQPGYPWPLYGNEG
# notes: Intersection of yeast two-hybrid prey fragments; also called SID Core (100%)
# B10: SID polypeptide of SEQ ID No 2, NS3 (100%), HCV strain H77 nt 4814-4922 (other)
# chain: GRGKPGIYRFVAPGERPSGMFDSSVLCECYDAGCA
# notes: Intersection of yeast two-hybrid prey fragments; also called SID NS3 (100%)
# B11: Bait polypeptide of SEQ ID No 103, NS5A (100%), HCV strain H77 nt 6440-6727 (other)
# chain: EITGHVKNGTMRIVGPRTCRNMWSGTFPINAYTTGPCTPLPAPNYKFALWRVSAEEYVEIRRVGDFHYVSGMTTDNLKCPCQIPSPEFFTELDG
# notes: also called Bait NS5A (100%)
# B12: SID polypeptide of SEQ ID No 27, NS3 (100%), HCV strain H77 nt 4784-4928 (other)
# chain: VSRTQRRGRTGRGKPGIYRFVAPGERPSGMFDSSVLCECYDAGCAWY
# notes: as for B10
# B13: SID polypeptide of SEQ ID No 14, E2 (100%), HCV strain H77 nt 1784-1888 (other)
# chain: ERPYCWHYPPRPCGIVPAKSVCGPVYCFTPSPV
# notes: as for B4
# B14: SID polypeptide of SEQ ID No 21, NS4B (100%), HCV strain H77 nt 5819-6080 (other)
# chain: TAFVGAGLAGAAIGSVGLGKVLVDILAGYGAGVAGALVAFKIMSGEVPSTEDLVNLLPAILSPGALVVGVVCAAILRRHVGPGEGA
# notes: Intersection of yeast two-hybrid prey fragments; also called SID NS4B (100%)
# B15: SID polypeptide of SEQ ID No 1, Core (100%), HCV strain H77 nt 446-600 (other)
# chain: LLPRRGPRLGVRATRKTSERSQPRGRRQPIPKARRPEGRTWAQPGYPWPL
# notes: as for B9
# B16: SID polypeptide of SEQ ID No 25, E1 (100%), HCV strain H77 nt 1226-1458 (other)
# chain: RRHWTTQDCNCSIYPGHITGHRMAWDMMMNWSPTAALVVAQLLRIPQAIMDMIAGAHWGVLAGIAYFSMVGNWAKV
# notes: Intersection of yeast two-hybrid prey fragments; also called SID E1 (100%)
# Tests used:
# Assay in all cases: yeast two-hybrid, mating, His3/LacZ reporters
# [1] = target: T1, Bait polypeptide of SEQ ID No 93, NS4B (86%)/NS5A (13%), HCV strain H77 nt 5717-6344 (hepatitis C virus strain H77, UniProt P26664 1793-2000)
# T1 construct: also called Bait NS4B (86%)/NS5A (13%)
# T1 chain: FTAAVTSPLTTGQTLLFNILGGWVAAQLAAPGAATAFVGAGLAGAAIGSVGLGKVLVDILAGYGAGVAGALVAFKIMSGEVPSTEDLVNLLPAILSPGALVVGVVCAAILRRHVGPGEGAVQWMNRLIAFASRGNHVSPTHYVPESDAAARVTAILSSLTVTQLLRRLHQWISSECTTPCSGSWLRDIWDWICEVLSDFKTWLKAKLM
# [2] = target: T2, SID polypeptide of SEQ ID No 23, NS4B (100%), HCV strain H77 nt 5879-6072 (hepatitis C virus strain H77, UniProt Q913V3 1847-1909)
# T2 construct: Intersection of yeast two-hybrid prey fragments; also called SID NS4B (100%)
# T2 sequence: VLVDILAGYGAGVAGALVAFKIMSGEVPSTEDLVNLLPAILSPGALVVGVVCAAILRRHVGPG
# [3] = target: T3, Bait polypeptide of SEQ ID No 87, NS3 (100%), HCV strain H77 nt 4238-4857 (hepatitis C virus strain H77, UniProt P27958 1300-1504)
# T3 construct: also called Bait NS3 (100%)
# T3 chain: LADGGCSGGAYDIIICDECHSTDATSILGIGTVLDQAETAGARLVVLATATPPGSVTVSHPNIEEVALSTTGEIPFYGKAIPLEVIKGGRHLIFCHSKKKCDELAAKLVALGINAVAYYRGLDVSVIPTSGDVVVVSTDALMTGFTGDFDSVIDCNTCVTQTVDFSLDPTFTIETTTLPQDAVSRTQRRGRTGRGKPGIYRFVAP
# [4] = target: T4, Bait polypeptide of SEQ ID No 97, NS4B (100%), HCV strain H77 nt 6011-6177 (hepatitis C virus strain H77, UniProt O92972 1891-1944)
# T4 construct: also called Bait NS4B (100%)
# T4 sequence: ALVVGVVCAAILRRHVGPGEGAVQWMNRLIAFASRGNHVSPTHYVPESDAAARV
# [5] = target: T5, Bait polypeptide of SEQ ID No 95, NS4B (55%)/NS5A (44%), HCV strain H77 nt 5882-6562 (hepatitis C virus strain H77, UniProt P26664 1848-2072)
# T5 construct: also called Bait NS4B (55%)/NS5A (44%)
# T5 chain: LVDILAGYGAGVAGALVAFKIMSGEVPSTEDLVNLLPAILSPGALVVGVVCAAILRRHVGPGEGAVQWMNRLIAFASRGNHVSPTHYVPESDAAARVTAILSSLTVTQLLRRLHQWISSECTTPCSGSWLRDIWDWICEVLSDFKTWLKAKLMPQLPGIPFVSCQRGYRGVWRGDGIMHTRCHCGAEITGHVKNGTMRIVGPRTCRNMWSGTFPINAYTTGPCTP
# [6] = target: T6, Bait polypeptide of SEQ ID No 101, NS4B (9%)/NS5A (90%), HCV strain H77 nt 6188-6939 (hepatitis C virus strain H77, UniProt P27958 1950-2198)
# T6 construct: also called Bait NS4B (9%)/NS5A (90%)
# T6 chain: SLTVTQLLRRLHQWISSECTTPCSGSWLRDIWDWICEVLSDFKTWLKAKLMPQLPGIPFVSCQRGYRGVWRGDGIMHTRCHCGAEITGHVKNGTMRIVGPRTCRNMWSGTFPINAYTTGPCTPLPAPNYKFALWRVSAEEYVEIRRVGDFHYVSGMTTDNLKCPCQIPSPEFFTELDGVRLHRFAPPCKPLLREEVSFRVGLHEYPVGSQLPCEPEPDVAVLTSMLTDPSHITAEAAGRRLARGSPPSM
# [7] = target: T7, SID polypeptide of SEQ ID No 16, NS4B (100%), HCV strain H77 nt 5918-6154 (hepatitis C virus strain H77, UniProt P26664 1860-1936)
# T7 construct: Intersection of yeast two-hybrid prey fragments; also called SID NS4B (100%)
# T7 sequence: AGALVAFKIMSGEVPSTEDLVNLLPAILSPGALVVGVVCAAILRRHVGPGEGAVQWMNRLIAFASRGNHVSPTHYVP
# [8] = target: T8, Bait polypeptide of SEQ ID No 90, NS3 (100%), HCV strain H77 nt 4838-5230 (hepatitis C virus strain H77, UniProt P26664 1500-1628)
# T8 construct: also called Bait NS3 (100%)
# T8 chain: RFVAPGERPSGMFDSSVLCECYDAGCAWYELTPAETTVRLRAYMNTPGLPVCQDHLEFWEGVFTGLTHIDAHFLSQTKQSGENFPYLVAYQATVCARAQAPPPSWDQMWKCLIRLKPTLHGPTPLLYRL
# [9] = target: T9, Bait polypeptide of SEQ ID No 78, Core (100%), HCV strain H77 nt 342-683 (hepatitis C virus strain H77, UniProt P27958 1-113)
# T9 construct: also called Bait Core (100%)
# T9 sequence: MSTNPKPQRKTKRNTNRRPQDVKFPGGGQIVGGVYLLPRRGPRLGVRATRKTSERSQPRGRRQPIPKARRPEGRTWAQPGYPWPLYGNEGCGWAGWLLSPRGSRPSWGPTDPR
# [10] = target: T10, SID polypeptide of SEQ ID No 28, NS5A (100%), HCV strain H77 nt 6557-6721 (hepatitis C virus strain H77, UniProt P27958 2073-2125)
# T10 construct: Intersection of yeast two-hybrid prey fragments; also called SID NS5A (100%)
# T10 sequence: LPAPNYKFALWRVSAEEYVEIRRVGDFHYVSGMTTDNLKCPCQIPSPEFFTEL
# [11] = target: T11, Bait polypeptide of SEQ ID No 102, NS5A (100%), HCV strain H77 nt 6317-6576 (hepatitis C virus strain H77, UniProt P26664 1993-2077)
# T11 construct: also called Bait NS5A (100%)
# T11 chain: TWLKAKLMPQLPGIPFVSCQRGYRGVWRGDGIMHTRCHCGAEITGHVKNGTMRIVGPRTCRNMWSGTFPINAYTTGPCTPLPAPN
# [12] = target: T12, Bait polypeptide of SEQ ID No 89, NS3 (100%), HCV strain H77 nt 4691-5168 (hepatitis C virus strain H77, UniProt P26664 1451-1608)
# T12 construct: also called Bait NS3 (100%)
# T12 chain: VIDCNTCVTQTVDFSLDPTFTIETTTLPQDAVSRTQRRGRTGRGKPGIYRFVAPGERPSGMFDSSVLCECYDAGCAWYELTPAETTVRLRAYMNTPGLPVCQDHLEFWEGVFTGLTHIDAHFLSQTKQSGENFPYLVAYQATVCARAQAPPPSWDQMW
# [13] = target: T13, Bait polypeptide of SEQ ID No 96, NS4B (82%)/NS5A(17%), HCV strain H77 nt 5897-6335 (hepatitis C virus strain H77, UniProt P26664 1853-1997)
# T13 construct: also called Bait NS4B (82%)/NS5A(17%)
# T13 sequence: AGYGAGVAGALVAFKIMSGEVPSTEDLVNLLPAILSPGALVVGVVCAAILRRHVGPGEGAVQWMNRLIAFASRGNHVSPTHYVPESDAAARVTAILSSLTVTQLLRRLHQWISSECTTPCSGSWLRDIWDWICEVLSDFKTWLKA
# [14] = target: T14, Bait polypeptide of SEQ ID No 77, Core (87%), HCV strain H77 nt 302-614 (hepatitis C virus strain H77)
# T14 construct: also called Bait Core (87%)
# T14 chain: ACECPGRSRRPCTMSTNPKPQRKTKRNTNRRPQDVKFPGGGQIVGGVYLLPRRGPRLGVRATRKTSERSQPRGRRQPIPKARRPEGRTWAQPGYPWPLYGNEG
# [15] = target: T15, Bait polypeptide of SEQ ID No 100, NS4B (8%)/NS5A (91%), HCV strain H77 nt 6182-7034 (hepatitis C virus strain H77, UniProt P27958 1948-2230)
# T15 construct: also called Bait NS4B (8%)/NS5A (91%)
# T15 chain: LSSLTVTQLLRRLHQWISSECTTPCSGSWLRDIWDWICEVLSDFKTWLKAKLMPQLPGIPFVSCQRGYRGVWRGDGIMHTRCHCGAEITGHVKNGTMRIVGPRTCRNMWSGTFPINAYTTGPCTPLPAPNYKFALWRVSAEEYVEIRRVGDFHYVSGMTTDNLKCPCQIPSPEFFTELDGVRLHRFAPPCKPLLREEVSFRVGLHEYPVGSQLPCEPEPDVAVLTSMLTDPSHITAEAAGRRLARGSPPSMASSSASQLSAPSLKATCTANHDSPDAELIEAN
binder,measurement,setting,value
B1,binding result,[1],binds
B2,binding result,[2],binds
B3,binding result,[3],binds
B4,binding result,[4],binds
B5,binding result,[5],binds
B6,binding result,[6],binds
B7,binding result,[7],binds
B8,binding result,[8],binds
B9,binding result,[9],binds
B10,binding result,[9],binds
B11,binding result,[10],binds
B12,binding result,[11],binds
B13,binding result,[12],binds
B14,binding result,[13],binds
B15,binding result,[14],binds
B16,binding result,[15],binds
